This is an account of results in patent US7655771B1, “Polymorphisms in the human cyp3a4 and cyp3a7 genes and their use in diagnostic and therapeutic applications” (PGx Health, LLC, priority 1999, dated 2010).

Several values for one entry are separate records, joined by “and”; a condition that tells them apart may be missing. Equal entries are not always repeated. Marks after values point to notes of the source that are not given here.

Series [1] deals with CYP3A4. The series can be described thus: 7-Benzyloxy-4-(trifluoromethyl)coumarin (7-BFC) debenzylase activity of wild-type and mutant CYP3A4 proteins. It counts as biochemical, human. Particulars: for 7-BFC debenzylase activity, 7-hydroxy-4-(trifluoromethyl)coumarin: substrate 7-BFC. Here is the method:
(§1) Mutants were expressed in E. coli TOPP3 cells. Cultures of each strain were started from single colonies in 2-ml of LB media containing ampicillin (50 μg/ml) and tetracycline (15 μg/ml) and grown overnight at 37° C. with shaking. Larger, 20-ml cultures of each sample were inoculated and grown as described for the 2-ml cultures. Starter cultures (15 ml) were inoculated into 250-ml of TB media containing ampicillin (50 μg/ml) and grown 2-3 hr at 37° C. at 250 rpm. δ-aminolevulinic acid (80 mg/L) and IPTG (1 mM) were added and the cultures grown 72 hr at 30° C. at 190 rpm. The cells were harvested, sonicated and CHAPS solubilized, and the protein was purified on Talon Metal Affinity resin from Clontech (Palo Alto, Calif.). Final P450 content was measured by reduced CO difference spectra (Omura, J Biol Chem 239 (1964), 2370-2378), and each protein was visualized on an 8.5% SDS PAGE gel stained with Coomassie blue. Western Blot analysis of CYP3A4 wild-type, M2, M5 and M7 was performed by resolving 1 pmol of 3A4 wildtype and M5, and 8 μl of M2 and M7 total protein sample on an 8.5% SDS PAGE gel. The samples were then transferred to nitrocellulose and probed with an anti-3A12 polyclonal antibody known to cross-react with CYP3A4 (Ciaccio, Arch Biochem Biophys 271 (1989), 284-99).
(§2) Following the reconstitution with NADPH-cytochrome P450 reductase and cytochrome b5, the catalytical activities of M1, M4, M5 and M6 variants were measured using testosterone, progesterone and 7-BFC as substrates (Tables 5-7).

In series [2] the test system is CYP3A4. As to the kind of experiment: Testosterone hydroxylase activity of wild-type and mutant CYP3A4 proteins (reconstituted with NADPH-cytochrome P450 reductase and cytochrome b5). It counts as biochemical, human. The settings on record: for Testosterone hydroxylase activity relative to wild-type CYP3A4: 25 μM testosterone (lower steroid concentration). As to the method: as §1, §2

Series [3] relates to CYP3A4. The series can be described thus: Progesterone hydroxylase activity of wild-type and mutant CYP3A4 proteins. It counts as biochemical, human. Here is the method:
as §1, §2

In series [4] the test system is CYP3A4. The series can be described thus: Western blot with anti-CYP3A12 polyclonal antibody. Also on record: species or system human. As to the method:
FIG. 7: Immunoblot of wild-type CYP3A4 (3A4), R130Q (M2), T363M (M5), and P416L (M7). P450 (1 pmol) was loaded into each lane, transferred to nitrocellulose, and probed with anti-3A12 IgG as described in Materials and Methods.
as §1
The effect of the protein variants on the expression level and catalytical activity of CYP3A4 was investigated using a bacterial CYP3A4 expression system. Sequence variants were introduced into the pSE3A4H expression vector (Harlow, J Biol Chem 272 (1997), 5396-402) which encodes for a CYP3A4 protein identical to that found in most Caucasians. […] Mutants M1-M8 were expressed in E. coli as described in Example 5, the expression of the CYP3A4 holoenzyme assessed by measuring reduced CO difference spectra, and the protein purified. […]

Series [5] concerns the target T1, CYP3A4 (Homo sapiens, UniProt P08684, D174H).
T1 construct: made in house; host or cells: E. coli TOPP3
The series can be described thus: Progesterone hydroxylase activity of wild-type and mutant CYP3A4 proteins. It counts as biochemical. Particulars: lower steroid concentration. As to the method:
as §1, §2

In the next series the test system is CYP3A4 holoenzyme. The series can be described thus: Expression of CYP3A4 holoenzyme in E. coli, reduced CO difference spectra. On the set-up: species or system human. The settings on record: for Detectable P450 holoprotein, in words: E. coli expression, reduced CO difference spectra. Here is the method:
as §1
The effect of the protein variants on the expression level and catalytical activity of CYP3A4 was investigated using a bacterial CYP3A4 expression system. Sequence variants were introduced into the pSE3A4H expression vector (Harlow, J Biol Chem 272 (1997), 5396-402) which encodes for a CYP3A4 protein identical to that found in most Caucasians. No other, unwanted mutations were introduced into the CYP3A4 insert or the promoter driving its expression as confirmed by sequencing. Mutants M1-M8 were expressed in E. coli as described in Example 5, the expression of the CYP3A4 holoenzyme assessed by measuring reduced CO difference spectra, and the protein purified. All but M2, M5 and M7 mutants were detectable at levels similar to CYP3A4. […] The expression of M2, M5, and M7 was further investigated by Western Blotting using an anti-CYP3A12 polyclonal antibody known to cross-react with CYP3A4 (Ciaccio, Arch Biochem Biophys 271 (1989), 284-99) as described in Example 5.

T1 sequence (P08684 2-503 D174H): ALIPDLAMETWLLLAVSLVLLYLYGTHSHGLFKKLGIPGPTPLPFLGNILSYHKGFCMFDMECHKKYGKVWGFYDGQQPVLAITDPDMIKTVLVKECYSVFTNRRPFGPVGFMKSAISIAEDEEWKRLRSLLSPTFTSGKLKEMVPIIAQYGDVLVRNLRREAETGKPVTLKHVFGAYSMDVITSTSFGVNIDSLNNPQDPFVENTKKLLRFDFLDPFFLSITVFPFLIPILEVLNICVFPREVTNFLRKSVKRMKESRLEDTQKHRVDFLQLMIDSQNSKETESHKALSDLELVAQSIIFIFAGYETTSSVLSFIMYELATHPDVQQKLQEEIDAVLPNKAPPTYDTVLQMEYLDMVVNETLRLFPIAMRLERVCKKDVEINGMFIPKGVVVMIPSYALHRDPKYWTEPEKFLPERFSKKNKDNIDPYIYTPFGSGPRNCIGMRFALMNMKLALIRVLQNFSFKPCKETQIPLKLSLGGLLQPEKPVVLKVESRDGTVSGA

Consider “M6: CYP3A4 protein variant L373F (g.21896C>T, exon 11) [Mutant M6]”, for which the “7-BFC debenzylase activity, 7-hydroxy-4-(trifluoromethyl)coumarin” value in the series with CYP3A4 [1] was 4.5 nmol product/min/nmol protein and 5.2 nmol product/min/nmol protein. The “Testosterone hydroxylase metabolite profile compared with wild-type CYP3A4” value with CYP3A4 [2] is given as “strikingly altered testosterone hydroxylase metabolite profile”. Besides, in the series on CYP3A4 [2] (25 μM testosterone), the “Testosterone hydroxylase activity, 2β-OH” value was 3.5 nmol product/min/nmol protein and 2.8 nmol product/min/nmol protein; the “Testosterone hydroxylase activity, 6β-OH” value is 10.1 nmol product/min/nmol protein and 8.6 nmol product/min/nmol protein; the “Testosterone hydroxylase activity, 15β-OH” value is 1.7 nmol product/min/nmol protein and 1.3 nmol product/min/nmol protein. For the same substance, in the series with CYP3A4 [2] (400 μM testosterone), the “Testosterone hydroxylase activity, 2β-OH” value is 29.2, nmol product/min/nmol protein and 36.3 nmol product/min/nmol protein; the “Testosterone hydroxylase activity, 6β-OH” value was 45.3 nmol product/min/nmol protein and 58.8 nmol product/min/nmol protein; the “Testosterone hydroxylase activity, 15β-OH” value is 5.9 nmol product/min/nmol protein and 7.7 nmol product/min/nmol protein. Besides, in the series with CYP3A4 [3] (25 μM progesterone), the “Progesterone hydroxylase 6β/16α ratio” value is 7.5 and 7.7; the “Progesterone hydroxylase activity, 6β-OH” value was 15.8, nmol product/min/nmol protein and 12.3 nmol product/min/nmol protein; the “Progesterone hydroxylase activity, 16α-OH” value was 2.1 nmol product/min/nmol protein and 1.6 nmol product/min/nmol protein. Moreover, in the series on CYP3A4 [3] (150 μM progesterone), the “Progesterone hydroxylase 6β/16α ratio” value was 7.9 and 7.7; the “Progesterone hydroxylase activity, 6β-OH” value was 40.1 nmol product/min/nmol protein and 49.8 nmol product/min/nmol protein; the “Progesterone hydroxylase activity, 16α-OH” value was 5.1 nmol product/min/nmol protein and 6.5 nmol product/min/nmol protein.
On to “WT: wild-type CYP3A4 protein encoded by pSE3A4H vector, identical to that found in most Caucasians, expressed in E. coli [reference compound]”, for which the “7-BFC debenzylase activity, 7-hydroxy-4-(trifluoromethyl)coumarin” value in the series with CYP3A4 [1] is listed as 6.5^a nmol product/min/nmol protein. For the same substance, in the series on CYP3A4 [2] (25 μM testosterone), the “Testosterone hydroxylase activity, 2β-OH” value was 0.2 nmol product/min/nmol protein; the “Testosterone hydroxylase activity, 6β-OH” value is reported as 9.3^a nmol product/min/nmol protein; the “Testosterone hydroxylase activity, 15β-OH” value is recorded as 0.4 nmol product/min/nmol protein. Also, in the series with CYP3A4 [2] (400 μM testosterone), the “Testosterone hydroxylase activity, 2β-OH” value is on record as 3.0 nmol product/min/nmol protein; the “Testosterone hydroxylase activity, 6β-OH” value was 41.6^a nmol product/min/nmol protein; the “Testosterone hydroxylase activity, 15β-OH” value is 1.2 nmol product/min/nmol protein. Besides, in the series with CYP3A4 [4], the Band in immunoblot entry is “Bands of the expected size”. In addition, in the series with CYP3A4 [3] (25 μM progesterone), the “Progesterone hydroxylase 6β/16α ratio” value is reported as 7.1; the “Progesterone hydroxylase activity, 6β-OH” value is 12.1^a nmol product/min/nmol protein; the “Progesterone hydroxylase activity, 16α-OH” value is reported as 1.7 nmol product/min/nmol protein. In addition, in the series with CYP3A4 [3] (150 μM progesterone), the “Progesterone hydroxylase 6β/16α ratio” value amounted to 5.0; the “Progesterone hydroxylase activity, 6β-OH” value was 32.1^a nmol product/min/nmol protein; the “Progesterone hydroxylase activity, 16α-OH” value was 6.4 nmol product/min/nmol protein.
As for “M4: CYP3A4 protein variant D174H (g.14304G>C, exon 6) [Mutant M4]”, in the series on CYP3A4 [1], the “7-BFC debenzylase activity relative to CYP3A4” value is recorded as below 50%; the “7-BFC debenzylase activity, 7-hydroxy-4-(trifluoromethyl)coumarin” value is 2.3 nmol product/min/nmol protein and 1.9 nmol product/min/nmol protein. Further, in the series with CYP3A4 [2], the “Testosterone hydroxylase metabolite profile compared with wild-type CYP3A4” value was “Neither M1 nor M4 mutant displayed alterations” and the “Testosterone hydroxylase activity relative to wild-type CYP3A4” value is on record as below 50%. Besides, in the series on CYP3A4 [2] (25 μM testosterone), the “Testosterone hydroxylase activity, 2β-OH” value is listed as <0.1, <0.1 nmol product/min/nmol protein; the “Testosterone hydroxylase activity, 6β-OH” value is 4.4 nmol product/min/nmol protein and 3.9 nmol product/min/nmol protein; the “Testosterone hydroxylase activity, 15β-OH” value is 0.1, 0.1 nmol product/min/nmol protein. Moreover, in the series on CYP3A4 [2] (400 μM testosterone), the “Testosterone hydroxylase activity, 2β-OH” value was 5.3 nmol product/min/nmol protein and 5.6 nmol product/min/nmol protein; the “Testosterone hydroxylase activity, 6β-OH” value was 32.4 nmol product/min/nmol protein and 29.8 nmol product/min/nmol protein; the “Testosterone hydroxylase activity, 15β-OH” value is 1.3 nmol product/min/nmol protein and 0.9 nmol product/min/nmol protein. In the series on CYP3A4 [3], the “Progesterone (steroid) hydroxylase metabolite profile compared with wild-type CYP3A4” value is “Neither M1 nor M4 mutant displayed alterations”. Also, in the series with CYP3A4 [3] (25 μM progesterone), the “Progesterone hydroxylase activity, 6β-OH” value is 5.5 nmol product/min/nmol protein and 5.4 nmol product/min/nmol protein; the “Progesterone hydroxylase activity, 16α-OH” value is 0.5, 0.5 nmol product/min/nmol protein. Moreover, in the series on CYP3A4 [3] (150 μM progesterone), the “Progesterone hydroxylase 6β/16α ratio” value was 5.5 and 5.9; the “Progesterone hydroxylase activity, 6β-OH” value is 21.4 nmol product/min/nmol protein and 18.4 nmol product/min/nmol protein; the “Progesterone hydroxylase activity, 16α-OH” value was 3.9 nmol product/min/nmol protein and 3.1 nmol product/min/nmol protein. Also, the “Progesterone hydroxylase activity relative to wild-type CYP3A4” value in the series with CYP3A4 [5] was below 50%.
On to “M1: CYP3A4 protein variant G56D (g.6004G>A, exon 3) [Mutant M1]”, for which the “7-BFC debenzylase activity relative to CYP3A4” value with CYP3A4 [1] is given as 137%. Also, in the series with CYP3A4 [2], the “Testosterone hydroxylase metabolite profile compared with wild-type CYP3A4” value is “Neither M1 nor M4 mutant displayed alterations” and the “Testosterone hydroxylase activity relative to wild-type CYP3A4” value is reported as 53%. Moreover, in the series with CYP3A4 [2] (25 μM testosterone), the “Testosterone hydroxylase activity, 2β-OH” value is on record as <0.1, <0.1 nmol product/min/nmol protein; the “Testosterone hydroxylase activity, 6β-OH” value was 5.1 nmol product/min/nmol protein and 4.8 nmol product/min/nmol protein; the “Testosterone hydroxylase activity, 15β-OH” value is 0.2, 0.2 nmol product/min/nmol protein. Also, in the series with CYP3A4 [2] (400 μM testosterone), the “Testosterone hydroxylase activity, 2β-OH” value is 5.4 nmol product/min/nmol protein and 6.9 nmol product/min/nmol protein; the “Testosterone hydroxylase activity, 6β-OH” value is 32.1, nmol product/min/nmol protein and 32.2^b nmol product/min/nmol protein; the “Testosterone hydroxylase activity, 15β-OH” value was 1.2 nmol product/min/nmol protein and 1.1 nmol product/min/nmol protein. For the same substance, the “Progesterone (steroid) hydroxylase metabolite profile compared with wild-type CYP3A4” value with CYP3A4 [3] is “Neither M1 nor M4 mutant displayed alterations”. Besides, in the series with CYP3A4 [3] (25 μM progesterone), the “Progesterone hydroxylase 6β/16α ratio” value was 5.6, 5.6; the “Progesterone hydroxylase activity, 6β-OH” value was 7.8, nmol product/min/nmol protein and 7.9^b nmol product/min/nmol protein; the “Progesterone hydroxylase activity, 16α-OH” value is 1.4, 1.4 nmol product/min/nmol protein. For the same substance, in the series on CYP3A4 [3] (150 μM progesterone), the “Progesterone hydroxylase 6β/16α ratio” value was 5.1, 5.1; the “Progesterone hydroxylase activity, 6β-OH” value was 21.3, nmol product/min/nmol protein and 21.3^b nmol product/min/nmol protein; the “Progesterone hydroxylase activity, 16α-OH” value is on record as 4.2, 4.2 nmol product/min/nmol protein.
As for “M7: CYP3A4 protein variant P416L (g.22026C>T, exon 11) [Mutant M7]”, in the series with CYP3A4 holoenzyme, the “Effect of mutation on expression of CYP3A4 holoenzyme (conclusion)” value was “abolish” and the “Detectable P450 holoprotein, in words” value is “no detectable P450 holoprotein”. Moreover, the Band in immunoblot entry in the series on CYP3A4 [4] is “Only a very faint band”.
Consider “M2: CYP3A4 protein variant R130Q (g.13908G>A, exon 5) [Mutant M2]”, for which, in the series with CYP3A4 holoenzyme, the “Effect of mutation on expression of CYP3A4 holoenzyme (conclusion)” value is on record as “abolish” and the “Detectable P450 holoprotein, in words” value was “no detectable P450 holoprotein”. For the same substance, the Band in immunoblot result in the series on CYP3A4 [4] is “Bands of the expected size”.
